Consider 34 molecules from patent US20210079088A1 (published 2021).

Sequences and labels used below:
T1: soluble human IL-4Rα (sIL-4Rα; PEPRO TECH, Catalog Number: 200-04R) (human, UniProt P24394 26-232)
T1 construct: Bought protein; also called shIL-4Rα; soluble hIL-4 Rα
T1 sequence: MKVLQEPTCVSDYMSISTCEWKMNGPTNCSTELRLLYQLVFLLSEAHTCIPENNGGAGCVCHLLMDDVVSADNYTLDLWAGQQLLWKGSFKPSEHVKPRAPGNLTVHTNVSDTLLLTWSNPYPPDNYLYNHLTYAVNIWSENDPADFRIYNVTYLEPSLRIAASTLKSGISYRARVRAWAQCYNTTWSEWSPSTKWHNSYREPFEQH

B1: L1001H1000 (antibody, V domains shown)
VH: EVQLVQSGGGLVHPGGSLRLSCAGSGFTFSRNAMFWVRQAPGKGLEWVSGIGTGGATNYADSVKGRFTISRDNAKNSLYLQMNSLRAEDMAVYYCARGRYYFDYWGQGTLVTVSS
VL: EIVLTQSPGTLSLSPGERATLSCRASQSVSNSYLAWYQQKPGQAPRLLIYGASSRAPGIPDRFSGSGSGTDFTLTISRLEPEDFAVYYCQQYDHSAGWTFGQGTKVEIK
B2: L1021H1031 (antibody, V domains shown)
VH: B1 VH with Q6E, H13Q, G24A, N58S, M90T
VL: B1 VL with N31S, Y50F
B3: L1021H1027 (antibody, V domains shown)
VH: B1 VH with Q6E, G24A, N58S, M90T, D103P, Y104W
VL: B1 VL with N31S, Y50F
B4: L1020H1027 (antibody, V domains shown)
VH: B1 VH with Q6E, G24A, N58S, M90T, D103P, Y104W
VL: B1 VL with N31S, P57T
B5: L1010H1000 (antibody, V domains shown)
VH: B1 VH
VL: not shown
B6: L1012H1029 (antibody, V domains shown)
VH: B1 VH with Q6E, H13Q, G24A, N58S, D103P, Y104W
VL: not shown
B7: L1021H1007 (antibody, V domains shown)
VH: B1 VH with N58S
VL: B1 VL with N31S, Y50F
B8: L1024H1031 (antibody, V domains shown)
VH: B1 VH with Q6E, H13Q, G24A, N58S, M90T
VL: B1 VL with Y50F
B9: L1013H1000 (antibody, V domains shown)
VH: B1 VH
VL: B1 VL with Y50F, P57T, A96P, G97P
B10: L1024H1000 (antibody, V domains shown)
VH: B1 VH
VL: B1 VL with Y50F
B11: L1012H1031 (antibody, V domains shown)
VH: B1 VH with Q6E, H13Q, G24A, N58S, M90T
VL: not shown
B12: L1011H1000 (antibody, V domains shown)
VH: B1 VH
VL: B1 VL with Y50F, D93G, H94S, A96P, G97P
B13: L1022H1000 (antibody, V domains shown)
VH: B1 VH
VL: B1 VL with P57T
B14: L1017H1000 (antibody, V domains shown)
VH: B1 VH
VL: not shown
B15: L1012H1020 (antibody, V domains shown)
VH: B1 VH with N58S, D103P, Y104W
VL: not shown
B16: L1019H1000 (antibody, V domains shown)
VH: B1 VH
VL: B1 VL with Y50F, P57T
B17: L1020H1016 (antibody, V domains shown)
VH: B1 VH with D103P, Y104W
VL: B1 VL with N31S, P57T
B18: L1021H1000 (antibody, V domains shown)
VH: B1 VH
VL: B1 VL with N31S, Y50F
B19: L1009H1000 (antibody, V domains shown)
VH: B1 VH
VL: not shown
B20: L1015H1000 (antibody, V domains shown)
VH: B1 VH
VL: B1 VL with N31S, Y50F, A96P, G97P
B21: L1020H1031 (antibody, V domains shown)
VH: B1 VH with Q6E, H13Q, G24A, N58S, M90T
VL: B1 VL with N31S, P57T
B22: L1020H1007 (antibody, V domains shown)
VH: B1 VH with N58S
VL: B1 VL with N31S, P57T
B23: L1007H1000 (antibody, V domains shown)
VH: B1 VH
VL: not shown
B24: L1012H1000 (antibody, V domains shown)
VH: B1 VH
VL: not shown
B25: L1020H1029 (antibody, V domains shown)
VH: B1 VH with Q6E, H13Q, G24A, N58S, D103P, Y104W
VL: B1 VL with N31S, P57T
B26: L1020H1000 (antibody, V domains shown)
VH: B1 VH
VL: B1 VL with N31S, P57T
B27: L1016H1000 (antibody, V domains shown)
VH: B1 VH
VL: B1 VL with N31S, Y50F, P57T, A96P, G97P
B28: L1024H1007 (antibody, V domains shown)
VH: B1 VH with N58S
VL: B1 VL with Y50F
B29: L1008H1000 (antibody, V domains shown)
VH: B1 VH
VL: not shown
B30: L1021H1020 (antibody, V domains shown)
VH: B1 VH with N58S, D103P, Y104W
VL: B1 VL with N31S, Y50F
B31: L1020H1020 (antibody, V domains shown)
VH: B1 VH with N58S, D103P, Y104W
VL: B1 VL with N31S, P57T
B32: L1021H1029 (antibody, V domains shown)
VH: B1 VH with Q6E, H13Q, G24A, N58S, D103P, Y104W
VL: B1 VL with N31S, Y50F
B33: L1012H1007 (antibody, V domains shown)
VH: B1 VH with N58S
VL: not shown
B34: L1021H1016 (antibody, V domains shown)
VH: B1 VH with D103P, Y104W
VL: B1 VL with N31S, Y50F

Residue numbers refer to the chain shown, from its start.

For the assay, the target named is T1, soluble human IL-4Rα (sIL-4Rα; PEPRO …). Nature of the assay: ELISA, coated sIL-4Rα, culture supernatant. As for the experimental part: Sample to be tested: For each antibody of the present invention, 10 μl and 2 μl of the culture supernatant of Expi293 cells expressing the antibody after transient transfection (the medium was Expi293 Expression Medium, Invitrogen, Catalog Number: A1435102; suspension culture was performed for 4 days at 100 rpm in a 8% CO2 incubator) were respectively added to 990 μl and 998 μl of PBS to prepare antibody samples to be tested of 1:100 and 1:500 dilutions.
100 μl of 100 μg/ml sIL-4Rα solution was added to 9.90 ml of PBS, mixed up and down, and then an antigen coating buffer of 1.0 μg/ml was obtained. The prepared antigen coating buffer was added to a 96-well ELISA plate (Corning) with a volume of 100 μl per well. The 96-well ELISA plate was incubated overnight in a refrigerator at 4° C. On the next day, the solution therein was discarded, and PBS containing 2% BSA was added to the 96-well ELISA plate row by row with a volume of 300 μl per well. The 96-well ELISA plate was incubated for 2 hours in a refrigerator at 4° C. Then the PBS containing 2% BSA was discarded and the plate was washed 3 times with PBST. Diluted antibodies to be tested were sequentially added to the corresponding wells, while the normal cell culture supernatants, as negative control samples, were added too. Three duplicate wells were made for each sample with a volume of 100 μl per well. The ELISA plate was wrapped with preservative film (or covered) and incubated for 1 h at 10° C. in a constant temperature incubator. Subsequently, the 96-well ELISA plate was taken out, and the solution therein was discarded. After washing with PBST for 3 times, TMB solution (Solarbio, Catalog Number: PR1200) was added to the 96-well ELISA plate row by row with a volume of 100 μl per well. The 96-well ELISA plate was placed at room temperature for 5 minutes, and 2 M H2SO4 solution was added in immediately to terminate the reaction. The 96-well ELISA plate was placed in flexstation 3 (Molecular Devices), the values of OD450 were read, and the data were collected, calculated and analyzed. Results were expressed relative to the affinity of control antibody 1.
For the molecule B1, the “OD450/OD450 Control antibody 1” value was 1.56 ratio to control antibody 1. As for B2, the “OD450/OD450 Control antibody 1” value is 0.9 ratio to control antibody 1. Take B3: the “OD450/OD450 Control antibody 1” value was 0.29 ratio to control antibody 1. Consider B4, for which the “OD450/OD450 Control antibody 1” value was 0.4 ratio to control antibody 1. As for B5, the “OD450/OD450 Control antibody 1” value is 1 ratio to control antibody 1. Under B6 stands 0.11 ratio to control antibody 1; under B7, 0.44 ratio to control antibody 1. B8: the “OD450/OD450 Control antibody 1” value was 0.9 ratio to control antibody 1. For B9, the “OD450/OD450 Control antibody 1” value was 0.24 ratio to control antibody 1. The result for B10 reads 0.69 ratio to control antibody 1.

In the case of B11, the “OD450/OD450 Control antibody 1” value was 0.16 ratio to control antibody 1. Under B12 stands 0.9 ratio to control antibody 1; under B13, 0.16 ratio to control antibody 1. Under B14 stands 0.49 ratio to control antibody 1. Under B15 stands 0.11 ratio to control antibody 1; under B16, 1.79 ratio to control antibody 1. As for B17, the “OD450/OD450 Control antibody 1” value is 0.8 ratio to control antibody 1. Under B18 stands 2.42 ratio to control antibody 1; under B19, 0.64 ratio to control antibody 1.

For B20, the “OD450/OD450 Control antibody 1” value was 0.67 ratio to control antibody 1. For B21, the “OD450/OD450 Control antibody 1” value is 1.12 ratio to control antibody 1. In the case of B22, the “OD450/OD450 Control antibody 1” value is 0.4 ratio to control antibody 1. B23: the “OD450/OD450 Control antibody 1” value was 0.8 ratio to control antibody 1. Consider B24, for which the “OD450/OD450 Control antibody 1” value was 1.22 ratio to control antibody 1. Regarding B25, the “OD450/OD450 Control antibody 1” value is 1.01 ratio to control antibody 1. Under B26 stands 2.27 ratio to control antibody 1; under B27, 0.27 ratio to control antibody 1. Under B28 stands 0.23 ratio to control antibody 1. In the case of B29, the “OD450/OD450 Control antibody 1” value was 0.9 ratio to control antibody 1. The result for B30 reads 0.24 ratio to control antibody 1. Under B31 stands 0.26 ratio to control antibody 1. Under B32 stands 1 ratio to control antibody 1.

B33: the “OD450/OD450 Control antibody 1” value was 0.4 ratio to control antibody 1. The result for B34 reads 0.63 ratio to control antibody 1.
